Data on 19 variants can be found in the RNAGym collection of RNA variant scans (doi:10.1073/pnas.2313332121).

This sample holds only a part of the variants without activity.

Sequences and labels used below:
B1: TPR 5TU (parent)
chain: GGAUCUUCUCGAUCUAACAAAAAAGACAAAUCUGCCACAAAGCUUGAGAGCAUCUUCGGAUGCAGAGGCGGCAGCCUUCGGUGGCGCGAUAGCGCCAACGUUCUCAACUAUGACACGCAAAACGCGUGCUCCGUUGAAUGGAGUUUAUCAUG

Variants of B1 are the subject of the data set. As to the kind of experiment: polymerase ribozyme fitness, log enrichment relative to wild type (log ratio); higher = more active; in vitro selection for triplet polymerase activity. In a few lines:
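A heterodimeric triplet polymerase ribozyme had each of its subunits mutagenized by PCR into a library, which was transcribed. One round of in vitro selection, done in triplicate, annealed each library with a biotinylated primer, its partner subunit and triplets, then incubated it frozen at −7 °C before gel excision of extended constructs, streptavidin-bead capture and RT-PCR. Fitness is the logarithm of genotype enrichment relative to wild-type enrichment, based on Illumina sequencing of inputs and outputs and inverse-variance-weighted replicate averages. A base-2 logarithm is used, and genotypes were kept only with ≥10 input reads and ≥1 read per output.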
With GGAUCUUCUCGAUCUAACAAAAAAGACAAAACUGCCAAAAAGCUUGAGACCAUCUUCGGAUGCAGAGGCGGCAGCCUUCGGUGGUGCGAUAGCGCCAACGUUCUCAACUAUGACACGCAAAACGCGUGCUCCGUUGAAUGGAGUUUAUCAUG [U31A C38A G50C C85U], the “polymerase ribozyme fitness (log ratio)” value was at most -4.2.

For GGAUCUUCUCGAUCUAACAAAAAAGACAAAACUGCCACAAAGCUUGAGGGCAUCAUCGUAUGCAGAGGCGGCAGCCUUCGGUGGCGCGAUAGCGCGAACGUUCUCAACUAUGACACGCAAAACGCGUGCUCCGUUGAAUGGAGUUUAUCAUG [U31A A49G U55A G59U C96G], the “polymerase ribozyme fitness (log ratio)” value was -1.89.

GGAUCUUCUCGAUCUAACAAAAAAGACAAAACUGCCACAAAGCUUGAGAGCAUCUUCGGAUGCAGAGGCGGCAGCCUUCGGUGGCGCGAUAGCGCCAACGUUCUCAACUAUGACACGCAAAACGCGUGCUACGUUGAAUGGAGUUUAUCAUG [U31A C131A]: the “polymerase ribozyme fitness (log ratio)” value was -1.89. Under GGAUCUUCUCGAUCUAACAAAAAAGACAAAACUGCCACAAAGCUUGAGAGCAUCUUCGGAUGCAGAGGCGGCCGCCUUCGGUGGCGCGAUAGCGCCAACGUUCUCAACUAUGACACGCAAAACGCGUGCUCCGUUGAAUGGAGUUUAUCAUG [U31A A73C] stands -4.13; under GGAUCUUCUCGAUCUAACAAAAAAGACAAAACUGCCACAAAGCUUGAGAGCAUCUUUGGAUGCAGAGGCGGCAGCCUUCGGUGGCGUGGUAGCGCCAACGUUCUCAACUAUGACACACAAAACGCGUGCUCCGUUGAAUGGAGUUUAUCAUG [U31A C57U C87U A89G G117A], -3.86.

Regarding GGAUCUUCUCGAUCUAACAAAAAAGACAAAACUGCCACAAAGCUUGAGAGCAUCUUCGGAUGCAGAGGCGGCAGCCUUCGGUGGCGCGAUAGCGCUAACGUUCUCAACUAUGACCCGCAAAACGCGUGCUCCGUUGAAUGGAGUUCAUCAUG [U31A C96U A115C U146C], the “polymerase ribozyme fitness (log ratio)” value was -0.845.

Take GGAUCUUCUCGAUCUAACAAAAAAGACAAAACUGCCACAAAGCUUCAGAGCAUCUUCGGAUGCAGAGGCGGCAGCCUUCGGUGGCGCGAUAGCGUCAACGUUCUCAACUAUGACACGCAAAACGCGUGCUCCGUUGAAUGGAGUUUAUCAUG [U31A G46C C95U]: the “polymerase ribozyme fitness (log ratio)” value is -1.57. The figure for GGAUCUUCUCGAUCUAACAAAAAAGACAAAACUGCCACAAAGCUUGAGAGCAUCUUCGGAUGCAGAGGCGGCUGCCUUCGGUGGCGCGAUAGCGGCAACGUUCUCAACUAUGACACGCAAAACGCGUGCUCCGUUGAAUGGAGUUUAUCAUG [U31A A73U C95G] is -3.66; for GGAUCUUCUCGAUCUAACAAAAAAGACAAAACUGCCACAAAGCUUGAGAGUAUCUUCGGAUGCAGAGGCGGCGGCCUUCGGUGGCGCGAUAGCGGCAACGUUCUCAACUAUGACACGCAAAACGCGUGCUCCGUUGAAUGGAGUUUAUCAUG [U31A C51U A73G C95G] it is -3.09. On to GGAUCUUCUCGAUCUAACAAAAAAGACAAAACUGCCACAAAGCUUGAGAGCCUCUUCCGAUGCAGAGGCGGCAGCCUUCGGUAGCGCGAUAGCGCCAACGUUCUCAACUAUGACACGCAAAACGCGUGCUCCGUUGAAUGGAGUUUAUCAUG [U31A A52C G58C G83A], for which the “polymerase ribozyme fitness (log ratio)” value was -4.11.

With GGAUCUUCUCGAUCUAACAAAAAAGACAAAACUGCCACAAAGCUUGAGAAGAUCUUCGAAUGCAGAGCCGGCAGCCUUCGGUGGCCCGAUAGCUCCAACGUUCUCAACUAUGACACGCAAAACUCGUGCUCCGUUGAAUGGAGUUUAUCAUG [U31A G50A C51G G59A G68C G86C G94U G124U], the “polymerase ribozyme fitness (log ratio)” value is at most -4.2. The figure for GGAUCUUCUCGAUCUAACAAAAAAGACAAAACUGCCACAAAGCUUGAGAGCAUCUUCGGAUGCAGAGGCGGCAGCCUUCGGUGGCGCGAUAGCGGCAACGUUCUCAACUAUGACACGCAAAACGCGUGCACCGUUGAAUGGAGUUUAUCAUG [U31A C95G U130A] is -3.43; for GGAUCUUCUCGAUCUAACAAAAAAGACAAAACUGCCACAAAGCUUGAGAGCCUCUUCGGAUGCAGAGGCGGCAGCCUUCGGUGGCGCGAUUGCGCCAACGUUCUCAACUAUGACACGCAAAACGCGUGCUCCGUUGAAUGGAGUUUAUCAUG [U31A A52C A91U] it is -4.06; for GGAUCUUCUCGAUCUAACAAAAAAGACAAAACUGCCACAAAGCUUGAGAGCAUCUUCGGAUGCAGAGGCGGCAGCCUUCGGUGGGGCGAUAGCGCGAACGUUCUCAACUAUGACACGCAAAACGCGUGCUCCGUUGAAUGGCGUUUAUCAUG [U31A C85G C96G A142C] it is at most -4.2. Consider GGAUCUUCUCGAUCUAACAAAAAAGACAAAACUGCCACAAAGCUUGAGAGCAUGUUAGGAUGCAGAGGCGGCAGCCUUCGGUGGGGCGAUAGCGCCAACGUUCUCAACUAUGACACGCAAAAUGCGUGCUCCGUUGAAUGGAGUUUAUCAUG [U31A C54G C57A C85G C123U], for which the “polymerase ribozyme fitness (log ratio)” value is -3.47. Under GGAUCUUCUCGAUCUAACAAAAAAGACAAAACUGCAACAAAGCUUGAGAGCGUCUUCGGAUGCAGAGGCGGCAGCAUUCGGUGGCGCGAUAGCGUCAACGUUCUCAACUAUGACACGCAAAACACGUGCUCCGUUGAAUUGAGUGUAUCAUG [U31A C36A A52G C76A C95U G124A G140U U145G] stands at most -4.2. For GGAUCUUCUCGAUCUAACAAAAAAGACAAAACUGCCACAAAGCUUGAGAGCAUCUUCGGAUGCAGUGGCGGCAGCCUUCGGUGGCUCGAUAGCGCCAACCUUCUCAACUAUGACACGCAAAACGCGUGCUCCGUUGAAUGGAGUUUAUCAUG [U31A A66U G86U G100C], the “polymerase ribozyme fitness (log ratio)” value is at most -4.2. With GGAUCUUCUCGAUCUAACAAAAAAGACAAAACUGCCACAAAGCUUGAGAGCAUCUUCGGAUGCAGAGGAGGCAGCCUUCGGUGGCGCGAUAGCGACAACGUUCUCAACUAUGACAGGCAAAACGCGUGCUCCGUUGAAUGGAGUUUAUCAUG [U31A C69A C95A C116G], the “polymerase ribozyme fitness (log ratio)” value is -2. GGAUCUUCUCGAUCUAACAAAAAAGACAAAAAUGCCACAAAGCUUGAGAGCAUCUUCGAAUGCAGAGGCGGCAGCCUUCGGUGGCGCGAUAGGGCCAACGUUCUCAACUAUGUCACGCAAAACGCGUGCUCCGUUGAAUGGAGUUUAUCCUG [U31A C32A G59A C93G A113U A150C]: the “polymerase ribozyme fitness (log ratio)” value was at most -4.2.
